Literature values as cited in publication PMC5133818.

Target: cytochrome c (Homo sapiens) (UniProt P99999)
Assay: SPR

Chain of UniProt P99999 (P99999 2-105): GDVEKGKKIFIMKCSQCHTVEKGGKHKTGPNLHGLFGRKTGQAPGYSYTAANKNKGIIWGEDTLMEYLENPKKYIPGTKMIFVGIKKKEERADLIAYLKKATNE

In the case of neuroglobin (from UniProt Q9NPG2), the Kd is given as 200 µM.
